In IntAct's records for PubMed 16968782:

B1: Nephrin (Homo sapiens), O60500-1 (parent)
chain: MALGTTLRASLLLLGLLTEGLAQLAIPASVPRGFWALPENLTVVEGASVELRCGVSTPGSAVQWAKDGLLLGPDPRIPGFPRYRLEGDPARGEFHLHIEACDLSDDAEYECQVGRSEMGPELVSPRVILSILVPPKLLLLTPEAGTMVTWVAGQEYVVNCVSGDAKPAPDITILLSGQTISDISANVNEGSQQKLFTVEATARVTPRSSDNRQLLVCEASSPALEAPIKASFTVNVLFPPGPPVIEWPGLDEGHVRAGQSLELPCVARGGNPLATLQWLKNGQPVSTAWGTEHTQAVARSVLVMTVRPEDHGAQLSCEAHNSVSAGTQEHGITLQVTFPPSAIIILGSASQTENKNVTLSCVSKSSRPRVLLRWWLGWRQLLPMEETVMDGLHGGHISMSNLTFLARREDNGLTLTCEAFSEAFTKETFKKSLILNVKYPAQKLWIEGPPEGQKLRAGTRVRLVCLAIGGNPEPSLMWYKDSRTVTESRLPQESRRVHLGSVEKSGSTFSRELVLVTGPSDNQAKFTCKAGQLSASTQLAVQFPPTNVTILANASALRPGDALNLTCVSVSSNPPVNLSWDKEGERLEGVAAPPRRAPFKGSAAARSVLLQVSSRDHGQRVTCRAHSAELRETVSSFYRLNVLYRPEFLGEQVLVVTAVEQGEALLPVSVSANPAPEAFNWTFRGYRLSPAGGPRHRILSSGALHLWNVTRADDGLYQLHCQNSEGTAEARLRLDVHYAPTIRALQDPTEVNVGGSVDIVCTVDANPILPGMFNWERLGEDEEDQSLDDMEKISRGPTGRLRIHHAKLAQAGAYQCIVDNGVAPPARRLLRLVVRFAPQVEHPTPLTKVAAAGDSTSSATLHCRARGVPNIVFTWTKNGVPLDLQDPRYTEHTYHQGGVHSSLLTIANVSAAQDYALFTCTATNALGSDQTNIQLVSISRPDPPSGLKVVSLTPHSVGLEWKPGFDGGLPQRFCIRYEALGTPGFHYVDVVPPQATTFTLTGLQPSTRYRVWLLASNALGDSGLADKGTQLPITTPGLHQPSGEPEDQLPTEPPSGPSGLPLLPVLFALGGLLLLSNASCVGGVLWQRRLRRLAEGISEKTEAGSEEDRVRNEYEESQWTGERDTQSSTVSTTEAEPYYRSLRDFSPQLPPTQEEVSYSRGFTGEDEDMAFPGHLYDEVERTYPPSGAWGPLYDEVQMGPWDLHWPEDTYQDPRGIYDQVAGDLDTLEPDSLPFELRGHLV
B2: Nephrin (Homo sapiens), O60500-1 (parent)
chain: B1 chain
partner: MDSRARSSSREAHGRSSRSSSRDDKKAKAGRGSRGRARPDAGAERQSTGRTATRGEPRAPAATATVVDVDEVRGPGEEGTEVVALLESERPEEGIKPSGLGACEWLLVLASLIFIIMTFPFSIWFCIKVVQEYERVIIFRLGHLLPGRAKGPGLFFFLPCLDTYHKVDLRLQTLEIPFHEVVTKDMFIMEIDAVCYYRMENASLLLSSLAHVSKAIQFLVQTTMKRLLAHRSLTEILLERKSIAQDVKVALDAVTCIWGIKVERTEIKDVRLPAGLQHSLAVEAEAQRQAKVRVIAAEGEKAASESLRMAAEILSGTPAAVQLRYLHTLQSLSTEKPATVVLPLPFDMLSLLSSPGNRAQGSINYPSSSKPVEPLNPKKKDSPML

Variants of: B1
Details: with arrb2_human ARRB2, P32121
Sequence of arrb2_human ARRB2, P32121 (P32121 whole entry): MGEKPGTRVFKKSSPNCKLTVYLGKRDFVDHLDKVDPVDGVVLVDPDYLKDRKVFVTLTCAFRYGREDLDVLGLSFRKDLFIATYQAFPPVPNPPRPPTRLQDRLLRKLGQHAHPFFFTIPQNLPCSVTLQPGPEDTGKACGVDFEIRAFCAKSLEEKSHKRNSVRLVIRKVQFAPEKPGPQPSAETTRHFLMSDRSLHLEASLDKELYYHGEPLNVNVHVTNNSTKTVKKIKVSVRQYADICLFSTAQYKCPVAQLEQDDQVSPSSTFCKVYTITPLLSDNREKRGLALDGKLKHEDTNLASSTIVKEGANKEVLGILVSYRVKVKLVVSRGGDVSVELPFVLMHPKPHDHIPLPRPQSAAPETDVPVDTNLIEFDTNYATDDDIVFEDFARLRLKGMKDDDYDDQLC

effect of a mutation on the interaction | Variant
decreasing interaction strength | Y1193A

Variants of: B2
Details: with podo_mouse Nphs2, Q91X05

effect of a mutation on the interaction | Variant
disrupting interaction strength | Y1193F
